Target: RNaseH2 complex (RNaseH2A/RNaseH2B/RNaseH2C), wild type;PCNA (Homo sapiens;Homo sapiens, UniProt O75792;Q5TBB1;Q8TDP1;P12004 1-299;1-312;1-164;1-261, |)
Assay: EMSA; 100 nM PCNA; 2 mM MgCl2; 100 nM DNA; 0.4-1.0 uM RNaseH2; PCNA raises binding (p 0.025, 0.010, 0.003 at 0.6, 0.8, 1.0 uM; ns at 0.4 uM); EMSA: 25 mM Tris pH 7.5, 100 mM NaCl, 10% glycerol, 2 mM MgCl2, 30 min at RT; 5% native TBE-PAGE at 4 C. Cryo-EM structures (8YJH-8YJZ) carry endogenous DNA of
Conditions: protein: recombinant;recombinant; tags: N-terminal 6xHis (each subunit as stated);N-terminal 6xHis; copies: 1;1;1;3; blunt

Chain of RNaseH2 complex (RNaseH2A/RNaseH2B/RNaseH2C), wild type;PCNA (O75792 whole entry, chain 1 of 4): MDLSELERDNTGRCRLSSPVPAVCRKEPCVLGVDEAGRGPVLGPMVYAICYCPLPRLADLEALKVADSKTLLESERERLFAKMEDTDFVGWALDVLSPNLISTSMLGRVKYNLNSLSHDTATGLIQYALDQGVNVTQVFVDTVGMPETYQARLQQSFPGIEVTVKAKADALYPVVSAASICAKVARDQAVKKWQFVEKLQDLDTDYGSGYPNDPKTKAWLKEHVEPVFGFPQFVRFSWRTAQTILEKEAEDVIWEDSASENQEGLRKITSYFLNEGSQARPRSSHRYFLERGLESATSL
Chain of RNaseH2 complex (RNaseH2A/RNaseH2B/RNaseH2C), wild type;PCNA (Q5TBB1 whole entry, chain 2 of 4): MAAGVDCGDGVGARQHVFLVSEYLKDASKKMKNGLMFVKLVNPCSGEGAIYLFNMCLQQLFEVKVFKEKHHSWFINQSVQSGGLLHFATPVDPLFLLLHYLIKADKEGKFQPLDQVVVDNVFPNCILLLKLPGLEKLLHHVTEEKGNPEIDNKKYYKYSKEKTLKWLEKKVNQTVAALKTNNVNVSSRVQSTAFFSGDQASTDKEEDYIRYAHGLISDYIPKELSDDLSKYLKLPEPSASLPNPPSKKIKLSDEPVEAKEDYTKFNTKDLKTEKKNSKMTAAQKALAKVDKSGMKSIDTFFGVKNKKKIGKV
Chain of RNaseH2 complex (RNaseH2A/RNaseH2B/RNaseH2C), wild type;PCNA (Q8TDP1 whole entry, chain 3 of 4): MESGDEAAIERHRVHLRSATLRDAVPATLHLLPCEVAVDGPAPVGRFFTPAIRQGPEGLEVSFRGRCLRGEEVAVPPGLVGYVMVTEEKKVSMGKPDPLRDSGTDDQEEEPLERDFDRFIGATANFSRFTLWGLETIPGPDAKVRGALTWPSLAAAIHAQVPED
Chain of RNaseH2 complex (RNaseH2A/RNaseH2B/RNaseH2C), wild type;PCNA (P12004 whole entry, chain 4 of 4): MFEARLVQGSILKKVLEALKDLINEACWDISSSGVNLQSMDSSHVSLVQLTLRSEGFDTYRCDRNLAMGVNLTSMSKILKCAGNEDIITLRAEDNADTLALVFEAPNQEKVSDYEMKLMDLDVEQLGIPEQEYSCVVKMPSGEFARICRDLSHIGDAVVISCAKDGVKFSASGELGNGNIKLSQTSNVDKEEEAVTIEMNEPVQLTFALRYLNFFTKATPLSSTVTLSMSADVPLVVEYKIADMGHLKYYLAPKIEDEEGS

B1: 5'-FAM 20 bp dsDNA (dsDNA)
DNA 1: CGGTTATAGGTTCACGGGGT
DNA 2: ACCCCGTGAACCTATAACCG
B1: binds.

From PMC11731006, “Structural insight into Okazaki fragment maturation mediated by PCNA-bound FEN1 and RNaseH2”
